Laboratory results: patent US20200377595A1

Biological target: recombinant human CD3 (human)
Experiment: SPR, Ab captured by anti-Fc, 37 C

Chain of recombinant human CD3 (human) (P07766 22-126, chain 1 of 2): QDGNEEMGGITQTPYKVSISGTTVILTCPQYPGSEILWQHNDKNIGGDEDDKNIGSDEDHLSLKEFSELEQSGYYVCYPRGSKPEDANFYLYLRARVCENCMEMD
Chain of recombinant human CD3 (human) (P04234 22-100, chain 2 of 2, further chain): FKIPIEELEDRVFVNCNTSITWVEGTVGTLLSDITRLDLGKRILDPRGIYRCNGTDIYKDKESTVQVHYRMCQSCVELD

B1: GPC3/CtrlxCD3 trispecific antibody (protein, part only; not given: control arm and constant regions, not shown: another chain or arm of the molecule; a dimerising Fc or GST)
VH 1: QVQLVESGGGLVQPGRSLRLSCAASGFTFSNAWMHWVRQAPGKGLEWVAQIKDRANSYNTYYAESVKGRFTISRDDSKNSIYLQMNSLKTEDTAVYYCRYVHYTTYAGSSFSYGVDAWGQGTTVTVSS
VL 1: DIVMTQSPLSLPVTPGEPASISCRSSQPLVHSNRNTYLHWYQQKPGQAPRLLIYKVSNRFSGVPDRFSGSGSGTDFTLKISRVEAEDVGVYYCGQGTQVPYTFGQGTKLEIK
VH 2: QVQLVQSGAEVKKPGASVTVSCKASGYTFTDYEMHWIRQPPGEGLEWIGAIDGPTPDTAYSEKFKGRVTLTADKSTSTAYMELSSLTSEDTAVYYCTRFYSYTYWGQGTLVTVSS
VL 2: DIVMTQSPLSLPVTPGEPASISCRSSQPLVHSNRNTYLHWYQQKPGQAPRLLIYKVSNRFSGVPDRFSGSGSGTDFTLKISRVEAEDVGVYYCGQGTQVPYTFGQGTKLEIK
In the case of B1, the Kd is reported as 17.8 nM, the koff is reported as 0.00151 s⁻¹ and the kon is reported as 85000 M⁻¹ s⁻¹.
